Data on one molecule can be found in patent US20050059087A1 (Amgen, published 2005).

This test concerns the target EGFrVIII antigen (ELISA antigen of Examples 15, 17 and 21; form not stated) (human, UniProt P00533 298-645, limits assumed). Put plainly: binding of variant antibody to EGFRvIII antigen.

B1: mAb 131 variant, light chain V99F (antibody, V domains shown)
VH: QVQLVESGGGVVQSGRSLRLSCAASGFTFRNYGMHWVRQAPGKGLEWVAVIWYDGSDKYYADSVRGRFTISRDNSKNTLYLQMNSLRAEDTAVYYCARDGYDILTGNPRDFDYWGQGTLVTVSS
VL: DTVMTQTPLSSHVTLGQPASISCRSSQSLVHSDGNTYLSWLQQRPGQPPRLLIYRISRRFSGVPDRFSGSGAGTDFTLEISRVEAEDVGVYYCMQSTHFPWTFGQGTKVEIK
notes: also called V99 changed to F
As for B1, the binding result was “no binding”.
